B1: single-chain antibody of SEQ ID NO: 2 (scFv)
scFv: QVQLQESGPGLVKPSETLSLNCTVSGGSISSSSYYWGWIRQPPGKGLEWIGSVYYTGNTYYNPSLKSRVTMSVDTSKNQFSLKLNSVTAADTAVYYCARHVLGGGWEVSQRFDYWGRGTLVTVSSGGGGSGGGGSGGGGSAQSVLTQPPSASGTPGQRVTISCSGSSSNIGSNPVNWYQQLPGTAPKLLIHTNNQRPSGVPDRFSGSKSGTSASLAISGLLSEDEADYYCAAWDDSLNAYVFGTGTKVTVL
notes: VH-linker(Ser/Gly)-VL from the CAT phage library CS, produced outside the phage context; also called scFVC11
B2: single-chain antibody of SEQ ID NO: 1 (scFv)
scFv: EVQLVQSGAEVRKPGATVKISCKLTGDTFTDYFIFWLQLAPGKGLQWMGLIDPKDAQTIYAEKFQGRVAITADTSTDTAYMEVSSLRSEDTAVYYCATDSVGAAGFDVWGRGTMVTVSSGGGGSGGGGSGGGGSALPVLTQPPSASGAPGQRVTFSCSGSGSNIGSYTVNWYQQLPGAAPRLLMHTTDQRASGAPDRFSGSKSGTSASLAITGLQSEDEADYFCAAWDDSLDGPVFGGGTKLTVL
notes: VH-linker(Ser/Gly)-VL from the CAT phage library CS, produced outside the phage context
B3: single-chain antibody of SEQ ID NO: 3 (scFv)
scFv: EVQLVETGAEVKKPGSSVKVSCKASGDTLSSHAIIWVRQAPGQGLEWMGGIIPIFRTVNYAQKFQGRVTITADDSTSTAYMELNDLRSEDTAVYYCAKTLNEGLPWDYWGQGTLVTVSSGGGGSGGGGSGGGGSAQSVLTQPPGASGAPGQRVTISCSGDSSNIESYAVNWYQQVPGMAPKLLIYRDNQRPSGVPDRFSGSRSGTSASLAISGLQSEDEADYYCGSWDDNLNGPTFGGGTKVTVL
notes: as for B2
B4: single-chain antibody of SEQ ID NO: 4 (scFv)
scFv: EVQLVQSGAEVRKPGTAVKISCKVAGDTFTDYFIYWLQQAPGKGPEWMGLIDPKDAQTIYAEKFQGRVAITADTSTDTAYMELSSLKSEDTAVYYCATDSVGSAGFDVWGQGTLVTVSSGGGGSGGGGSGGGGSALPVLTQPPSASGAPGQRVTFSCSGSGSNIGSYTVNWYQQLPGAAPRLLMHTTDQRASGVPDRFSGSKSGTSASLAITGLQSEDEADYFCAAWDDSLDGPVFGGGTKLTVL
notes: as for B2
B5: IgG4 molecule containing SEQ ID NO: 2 variable regions (antibody, V domains shown)
VH: QVQLQESGPGLVKPSETLSLNCTVSGGSISSSSYYWGWIRQPPGKGLEWIGSVYYTGNTYYNPSLKSRVTMSVDTSKNQFSLKLNSVTAADTAVYYCARHVLGGGWEVSQRFDYWGRGTLVTVSS
VL: not shown
notes: The primers may have added amino acids
B6: IgG4 molecule containing SEQ ID NO: 4 variable regions (antibody, V domains shown)
VH: EVQLVQSGAEVRKPGTAVKISCKVAGDTFTDYFIYWLQQAPGKGPEWMGLIDPKDAQTIYAEKFQGRVAITADTSTDTAYMELSSLKSEDTAVYYCATDSVGSAGFDVWGQGTLVTVSS
VL: LPVLTQPPSASGAPGQRVTFSCSGSGSNIGSYTVNWYQQLPGAAPRLLMHTTDQRASGVPDRFSGSKSGTSASLAITGLQSEDEADYFCAAWDDSLDGPVFGGGTKLTVL
notes: as for B5

The binders below were run against T1, human scavenger receptor class B type I (SR-B1) (human, UniProt Q8WTV0 1-467) (assay: FACS competition on HepG2 cells, scFv concentration varied, competitor soluble E2).
T1 construct: The same entry is used for all three; also called SR-BI; SR-B1 receptor
T1 sequence: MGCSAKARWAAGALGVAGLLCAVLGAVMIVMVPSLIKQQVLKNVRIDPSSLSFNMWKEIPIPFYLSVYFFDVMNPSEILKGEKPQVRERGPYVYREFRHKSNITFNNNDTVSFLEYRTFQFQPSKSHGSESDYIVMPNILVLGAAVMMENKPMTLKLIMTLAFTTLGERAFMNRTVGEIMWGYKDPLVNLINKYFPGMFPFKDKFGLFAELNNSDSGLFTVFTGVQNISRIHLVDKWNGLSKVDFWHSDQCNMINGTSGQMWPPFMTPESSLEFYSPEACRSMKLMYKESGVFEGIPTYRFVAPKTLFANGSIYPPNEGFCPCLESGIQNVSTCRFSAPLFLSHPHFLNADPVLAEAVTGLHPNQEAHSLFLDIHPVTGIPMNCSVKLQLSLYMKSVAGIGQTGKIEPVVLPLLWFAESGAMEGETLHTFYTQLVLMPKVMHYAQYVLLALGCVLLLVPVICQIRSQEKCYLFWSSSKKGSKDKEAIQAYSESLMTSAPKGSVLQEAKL

Row | Binder | binding result
1 | B1 | binds
2 | B2 | binds
3 | B3 | binds
4 | B4 | binds

These binders were tested against T1, human scavenger receptor class B type I … (assay: FACS competition on Cho7s cells expressing human SR-B1, IgG concentration varied (60-12-2.4 µg/ml), competitor His-tagged soluble E2).

Row | Binder | binding result
5 | B5 | binds
6 | B6 | binds
